B1: TPR t1 (parent)
chain: GACCAAUCUGCCCUCAGAGCUCGAGAACAUCUUCGGAUGCAGAGGAGGCAGGCUUCGGUGGCGCGAUAGCGCCAACGUCCUCAACCUCCAAUGCAUCCCACCACAUGAUGAUGCCUGAAGAGCCUUGGUUUUUUG

Variants of: B1
Experiment: polymerase ribozyme fitness, log enrichment relative to wild type (log ratio); higher = more active; in vitro selection for triplet polymerase activity
Outline: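 Mutant libraries of both subunits of a heterodimeric triplet polymerase ribozyme were PCR-built, transcribed, and selected once in triplicate, with frozen incubation at −7 °C and capture of gel-excised extended constructs on streptavidin beads before RT-PCR. Illumina sequencing of input and output libraries was filtered to genotypes with ≥10 input reads and ≥1 read per output. Fitness is the logarithm of genotype enrichment over wild-type enrichment, using inverse-variance-weighted replicate averages. The logarithm is base 2.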

| Variant | polymerase ribozyme fitness (log ratio) |
| --- | --- |
| C15G G39U C73G U112A G122U | -2.91 |
| A16C G69U | -1.81 |
| C15U C72G A100U U130A | -2.29 |
| C15U A46U U54G C123A | -1.74 |
| A16G C40G C124A | 0.0509 |
| C15U C124A | 0.552 |
| C15U A16C G93C C123U U126C | -2.73 |
| C15U C76G | -1.31 |
| C15U A41G G52U C62U A119U | -2.59 |
| C15G U32C G36C C49G G120C | -3.15 |
| C15U C49A U92C U106A | -3.27 |
| C15U G61C C104A C124U | -3.58 |
| C15U U30G C53G G71C U78G U106A | -4.3 |
| A16U C72A U131C | -1.73 |
| C15U G57U C72U C82A A111C A118G | -1.91 |
| A16C C70U C85G | -3.97 |
| C15G U78G | -2.92 |
| C15U C94A | -2.56 |
| C15U G57A G58A U109G G113A | -7.08 |
| C15U U59G U96C C102A G120C U133A | -2.28 |
| A16U C72G C104U | -1.7 |

| Variant | polymerase ribozyme fitness (log ratio) |
| --- | --- |
| C15U C64A C79A C98A G117U | -6.93 |
| C15U C72A C85G C102A | -3.1 |
| C15U A43G G57U C85A G93U G120C | -4.37 |
| C15U U106A | -1.69 |
| C15U U133A | -1.79 |
| C15U U133G | -2.11 |
| A16U C64U | -1.71 |
| A16C C70U | -3.17 |
| C15U G60U C123U | -0.514 |
| A16U C64A C89A A111G U130G | -5.81 |
| C15G G17A | -3.99 |
| A16U A18C G52A U96C U112A | -4.51 |
| C15U G39C G69U C94U C115U C123A G135U | -1.89 |
| A16C C62U A83C C88G | -2.71 |
| C15U G52A | -1.6 |
| A16G A37G | -1.71 |
| C15G G93A | -3.21 |
| C15G G93C | -4.1 |
| A16U C94U C101U U116C G128U U132A | -5.42 |
| C15U G42C A74U | -3.74 |
| A16G G61A | -1.13 |

| Variant | polymerase ribozyme fitness (log ratio) |
| --- | --- |
| C15U A18U C31A G39U U54A C70U C114U C115G | -5.12 |
| A16C U87C | -2.31 |
| C15U C20G G51A C98G U109A | -2.04 |
| C15U A111U A118C | -5.19 |
| A16C C49A | -3.04 |
| C15U A43C C76U | -3.95 |
| C15G C85G U96A C114A G117C | -3.58 |
| C15U C53U G69U | -0.102 |
| A16C C79G | -4.14 |
| A16G C70U C82G | -2.05 |
| A16G U116C | 1.6 |
| C15U G39U G42A A84U | -4.16 |
| A16G G39A C114U | -4.17 |
| C15G U96C G117C U130G | 0.208 |
| C15G G45C C102A G113U G122A | -5.64 |
| C15U C62G C82A | -2.4 |
| C15G G52U C76U U96C C99U A111G | -7.38 |
| C15U G120C | -0.175 |
| C15U A18U C49G C72A U92C | -5.58 |
| A16G C97G U116C | -2.75 |
| A16C A27G G61A U112C | -1.49 |

| Variant | polymerase ribozyme fitness (log ratio) |
| --- | --- |
| C15U C72U U78A C85G C98A C104G C123U G128C | -6.7 |
| A16U A83C G120U C123A G127C U131A | -1.95 |
| A16G G71U | -0.398 |
| C15U C123G | 0.228 |
| C15U C22U C72U G120C | -3.96 |
| A16C G47U | -3.93 |
| C15U G44A C56A C62A G71C U131A | -3.4 |
| A16G G45A C80G C114U | -5.91 |
| A16G G42C A43C C123A | -3.43 |
| C15U G127U | -2.39 |
| A16U C70G C79U C94U | -2.44 |
| C15U A37C C53A | -1.72 |
| C15U A43U G48A A100C A111G | -5.15 |
| C15G G17U C86A | -5.4 |
| C15U C115A | -1.57 |
| C15U C64G A90C C114U G128A | -6.98 |
| C15U C73U G77A C98A | -8.01 |
| A16C G45C G63A A100C U112C U129G | -2.73 |
| C15U U21A G63U | -2.12 |
| C15G G36A | -4.46 |
| C15G G69U C102A | -1.71 |

— the RNAGym collection of RNA variant scans (doi:10.1073/pnas.2313332121)
